Patent US20230340151A1 (Pfizer, published 2023)
Changes are numbered by the printed parent chain. Each block holds one binder with its values, some of them ahead of it.

What was measured:
[1] = target: Human GUCY2c on tumor cells (T84, HT55) (human, UniProt P25092 24-1073); assay: cell-based or functional assay
Human CD3 epsilon-delta [2] = target: T1, Human CD3 epsilon-delta (human); assay: SPR, anti-human IgG capture, 25 C
T1 construct: Single-chain epsilon-linker-delta with His6; also called huCD3
T1 chain: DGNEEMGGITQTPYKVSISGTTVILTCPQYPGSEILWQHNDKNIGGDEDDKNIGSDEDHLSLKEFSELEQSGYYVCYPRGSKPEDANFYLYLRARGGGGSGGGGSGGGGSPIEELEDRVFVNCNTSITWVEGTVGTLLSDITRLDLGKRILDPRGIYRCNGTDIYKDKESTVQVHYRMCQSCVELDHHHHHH

[3] = target: T2, Human GUCY2C full length (SEQ ID NO: 224), recombinant protein (human, UniProt P25092 24-430, limits assumed); assay: SPR, anti-human IgG capture, 25 C
T2 construct: also called huGUCY2C; biotinylated human GUCY2c

Human CD3 epsilon-delta [4] = target: T1, Human CD3 epsilon-delta; assay: direct ELISA, coated CD3 epsilon-delta
[5] = target: T3, Purified human GUCY2c ECD (recombinant, construct not stated) (human, UniProt P25092 24-430); assay: direct ELISA, coated GUCY2c ECD
T3 construct: also called recombinant human GUCY2c; recombinant GUCY2c protein

[6] = target: T4, Murine GUCY2C-ECD cleaved (mouse, UniProt Q3UWA6 20-433); assay: SPR, anti-human IgG capture, 25 C
T4 sequence: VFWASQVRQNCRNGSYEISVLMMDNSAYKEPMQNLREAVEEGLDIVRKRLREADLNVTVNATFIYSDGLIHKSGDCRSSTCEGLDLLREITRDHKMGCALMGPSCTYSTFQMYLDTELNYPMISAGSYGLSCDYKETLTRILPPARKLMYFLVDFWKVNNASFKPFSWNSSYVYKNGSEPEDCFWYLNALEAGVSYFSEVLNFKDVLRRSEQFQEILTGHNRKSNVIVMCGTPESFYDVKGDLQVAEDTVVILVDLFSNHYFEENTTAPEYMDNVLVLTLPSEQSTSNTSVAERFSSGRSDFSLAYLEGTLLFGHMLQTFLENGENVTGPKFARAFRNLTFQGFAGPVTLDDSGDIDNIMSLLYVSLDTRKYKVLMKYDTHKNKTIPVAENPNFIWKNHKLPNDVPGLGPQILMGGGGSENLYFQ

[7] = target: T5, Cynomolgus CD3 epsilon-delta (cynomolgus); assay: SPR, printed anti-His capture, 25 C (Table 33D)
T5 chain: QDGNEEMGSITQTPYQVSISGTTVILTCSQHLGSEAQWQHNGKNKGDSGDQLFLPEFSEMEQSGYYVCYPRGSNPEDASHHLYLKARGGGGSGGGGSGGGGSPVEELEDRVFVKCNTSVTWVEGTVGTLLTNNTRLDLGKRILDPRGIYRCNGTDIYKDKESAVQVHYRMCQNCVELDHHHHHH

[8] = target: T6, Cynomolgus GUCY2C-ECD Cleaved (cynomolgus, UniProt P25092 24-430 (human entry)); assay: SPR, anti-human IgG capture, 25 C
T6 construct: also called CyGUCY2C
T6 chain: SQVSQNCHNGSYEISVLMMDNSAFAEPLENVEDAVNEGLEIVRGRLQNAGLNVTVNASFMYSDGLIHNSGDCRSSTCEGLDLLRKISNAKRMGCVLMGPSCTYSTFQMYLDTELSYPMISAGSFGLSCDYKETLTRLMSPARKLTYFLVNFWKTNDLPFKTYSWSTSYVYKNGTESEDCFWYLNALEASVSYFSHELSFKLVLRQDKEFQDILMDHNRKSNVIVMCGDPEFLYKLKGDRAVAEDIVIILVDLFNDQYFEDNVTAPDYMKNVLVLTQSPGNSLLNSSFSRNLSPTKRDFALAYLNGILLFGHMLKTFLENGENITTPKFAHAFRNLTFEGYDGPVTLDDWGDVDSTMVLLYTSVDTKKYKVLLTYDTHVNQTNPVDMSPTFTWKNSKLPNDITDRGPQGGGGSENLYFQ

Human GUCY2C ECD-muIgG2a = target: T7, Human GUCY2C ECD-muIgG2a (human); assay: sandwich ELISA: CD3 epsilon-delta coated, GUCY2c ECD-mIgG2a Fc in solution
T7 construct: also called human GUCY2c ECD-mouse IgG2a Fc fusion protein; huGUCY2c-mIgG2a

[9] = target: T2, Human GUCY2C full length (SEQ ID NO: …); assay: SPR, GUCY2c directly immobilized, 25 C
[10] = target: T3, Purified human GUCY2c ECD (recombinant, …); assay: ELISA; column 'Direct huGUCY2C binding (nM)'

T3 sequence (P25092 24-430 limits assumed): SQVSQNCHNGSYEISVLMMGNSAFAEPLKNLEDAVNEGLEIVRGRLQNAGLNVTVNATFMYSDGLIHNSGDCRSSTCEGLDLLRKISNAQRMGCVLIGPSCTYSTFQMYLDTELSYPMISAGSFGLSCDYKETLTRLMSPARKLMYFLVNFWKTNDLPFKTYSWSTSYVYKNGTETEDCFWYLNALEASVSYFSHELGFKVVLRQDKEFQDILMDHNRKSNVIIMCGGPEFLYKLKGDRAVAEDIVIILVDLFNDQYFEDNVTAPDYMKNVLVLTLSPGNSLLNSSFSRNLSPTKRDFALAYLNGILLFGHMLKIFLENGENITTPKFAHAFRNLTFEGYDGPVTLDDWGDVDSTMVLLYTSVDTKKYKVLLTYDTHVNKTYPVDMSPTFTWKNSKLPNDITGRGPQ
T2 sequence (P25092 24-430 F281L limits assumed): as the sequence (P25092 24-430 limits assumed) above, with F258L counted along it
T7 sequence (chain, as listed by the source limits assumed): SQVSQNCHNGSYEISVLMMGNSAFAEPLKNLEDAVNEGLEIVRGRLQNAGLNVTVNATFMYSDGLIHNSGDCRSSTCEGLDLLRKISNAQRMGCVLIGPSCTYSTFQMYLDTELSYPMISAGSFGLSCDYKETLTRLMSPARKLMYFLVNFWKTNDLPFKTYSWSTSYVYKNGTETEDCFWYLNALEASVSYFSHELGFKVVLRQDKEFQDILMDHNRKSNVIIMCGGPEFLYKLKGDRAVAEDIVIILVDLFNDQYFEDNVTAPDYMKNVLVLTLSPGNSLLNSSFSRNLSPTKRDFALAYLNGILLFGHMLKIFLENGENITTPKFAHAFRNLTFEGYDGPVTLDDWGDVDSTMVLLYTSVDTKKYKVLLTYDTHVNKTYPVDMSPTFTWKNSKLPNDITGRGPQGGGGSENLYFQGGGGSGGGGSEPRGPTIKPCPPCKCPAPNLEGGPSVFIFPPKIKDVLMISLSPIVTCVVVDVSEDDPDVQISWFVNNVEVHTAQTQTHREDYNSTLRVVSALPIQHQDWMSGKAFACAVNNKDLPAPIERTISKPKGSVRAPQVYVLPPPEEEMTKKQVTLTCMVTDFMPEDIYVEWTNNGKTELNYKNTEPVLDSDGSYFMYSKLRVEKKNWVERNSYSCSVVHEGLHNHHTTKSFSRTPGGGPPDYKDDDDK
Human GUCY2c on tumor cells (T84, HT55), sequence (P25092 24-1073 limits assumed): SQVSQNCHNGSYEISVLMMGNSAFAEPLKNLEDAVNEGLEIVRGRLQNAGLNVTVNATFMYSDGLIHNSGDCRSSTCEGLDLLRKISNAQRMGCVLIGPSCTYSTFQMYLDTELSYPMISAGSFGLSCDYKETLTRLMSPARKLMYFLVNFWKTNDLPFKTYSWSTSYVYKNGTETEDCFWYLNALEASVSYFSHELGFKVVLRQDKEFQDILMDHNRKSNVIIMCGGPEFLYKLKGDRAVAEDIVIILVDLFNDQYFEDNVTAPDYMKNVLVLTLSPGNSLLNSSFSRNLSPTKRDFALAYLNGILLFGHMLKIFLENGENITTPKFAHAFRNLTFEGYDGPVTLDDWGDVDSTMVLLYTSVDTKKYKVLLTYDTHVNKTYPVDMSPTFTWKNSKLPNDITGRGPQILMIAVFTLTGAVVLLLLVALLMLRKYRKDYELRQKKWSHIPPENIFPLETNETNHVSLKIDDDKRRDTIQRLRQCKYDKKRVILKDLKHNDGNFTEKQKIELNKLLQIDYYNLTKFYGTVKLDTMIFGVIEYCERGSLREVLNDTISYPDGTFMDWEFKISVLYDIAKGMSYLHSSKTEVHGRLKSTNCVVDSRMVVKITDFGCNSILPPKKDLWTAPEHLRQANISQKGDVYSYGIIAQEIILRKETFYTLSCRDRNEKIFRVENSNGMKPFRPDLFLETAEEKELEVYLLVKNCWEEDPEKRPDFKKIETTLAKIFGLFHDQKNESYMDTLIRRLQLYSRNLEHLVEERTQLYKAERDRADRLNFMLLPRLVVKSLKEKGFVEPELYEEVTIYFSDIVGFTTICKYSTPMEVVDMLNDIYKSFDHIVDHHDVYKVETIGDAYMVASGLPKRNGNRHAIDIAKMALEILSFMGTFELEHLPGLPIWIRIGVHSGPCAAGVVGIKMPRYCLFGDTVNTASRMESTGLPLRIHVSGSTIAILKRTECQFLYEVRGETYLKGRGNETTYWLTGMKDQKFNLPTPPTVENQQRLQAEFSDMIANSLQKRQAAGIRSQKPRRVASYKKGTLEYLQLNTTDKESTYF

B1: GUCY2C-0074 (bispecific antibody)
chain 1: DIVLTQSPASLAVSLGQRATISCRASESVDNYGISFMNWFQQKPGQPPKLLIYAASNPGSGVPARFSGSGSGTDFSLNIHPLEEDDTAMFFCQQSKEVPYTFGGGTKLEIKGGGSGGGGEVQLVESGGGLVQPGGSLRLSCAASGFTFSDYYMTWVRQAPGKGLEWVAFIRNRARGYTSDHNPSVKGRFTISRDNAKNSLYLQMNSLRAEDTAVYYCARDRPSYYVLDYWGQGTTVTVSSGCPPCPAPEAAGAPSVFLFPPKPKDTLMISRTPEVTCVVVDVSHEDPEVKFNWYVDGVEVHNAKTKPREEQYNSTYRVVSVLTVLHQDWLNGKEYKCKVSNKALPAPIEKTISKAKGQPREPQVCTLPPSREEMTKNQVSLWCLVKGFYPSDIAVEWESNGQPENNYKTTPPVLDSDGSFFLYSKLTVDKSRWQQGNVFSCSVMHEALHNHYTQKSLSLSPG
chain 2: DIVMTQSPDSLAVSLGERATINCKSSQSLFNVRSRKNYLAWYQQKPGQPPKLLISWASTRESGVPDRFSGSGSGTDFTLTISSLQAEDVAVYYCKQSYDLFTFGSGTKLEIKGGGSGGGGEVQLQQSGAELARPGASVNLSCKASGYTFTTYWMQWVKQRPGQGLEWIGAIYPGDGMTTYTQKFKDKATLTADKSSSTAYMQLSSLASEDSAVYYCVRKGMDYWGQGTSVTVSSGCPPCPAPEAAGAPSVFLFPPKPKDTLMISRTPEVTCVVVDVSHEDPEVKFNWYVDGVEVHNAKTKPREEQYNSTYRVVSVLTVLHQDWLNGKEYKCKVSNKALPAPIEKTISKAKGQPREPQVYTLPPCREEMTKNQVSLSCAVKGFYPSDIAVEWESNGQPENNYKTTPPVLDSDGSFFLVSKLTVDKSRWQQGNVFSCSVMHEALHNHYTQKSLSLSPG
notes: chimeric CD3-GUCY2c diabody-Fc, CD3-0004
T84 tumor cell EC50 (T cell cytotoxicity, E:T 10:1) [1]: 2.6 nM
Kd (Human CD3 epsilon-delta [2]): 2.17 nM
koff (Human CD3 epsilon-delta [2]): 0.000861 s⁻¹
kon (Human CD3 epsilon-delta [2]): 471000 M⁻¹ s⁻¹
Kd [3]: 45.4 nM
koff [3]: 0.002 s⁻¹
kon [3]: 44100 M⁻¹ s⁻¹
EC50 (Human CD3 epsilon-delta [4]): 1.13 nM
EC50 [5]: > 100 nM
Kd [6]: 191 nM
koff [6]: 0.00282 s⁻¹
kon [6]: 14800 M⁻¹ s⁻¹
Kd [7]: 2.64 nM
koff [7]: 0.00112 s⁻¹
kon [7]: 425000 M⁻¹ s⁻¹
Kd [8]: 60.4 nM
koff [8]: 0.00284 s⁻¹
kon [8]: 47300 M⁻¹ s⁻¹
EC50 (Human GUCY2C ECD-muIgG2a): 4.05 nM

B2: GUCY2C-0077 (bispecific antibody)
chain 1: B1 chain 1 with Y32F, G33D, P58Q, L82M, F90Y
chain 2: DIVMTQSPDSLAVSLGERATINCKSSQSLFNVRSRKNYLAWYQQKPGQPPKLLISWASTRESGVPDRFSGSGSGTDFTLTISSLQAEDVAVYYCKQSYDLFTFGSGTKLEIKGGGSGGGGEVQLQQSGAELARPGASVKLSCKASGYTFTKYWMQWIKQRPGQGLEWIGAIYPGDGFTTYTQKFKGKATLTADKSSNTAYMQLSSLASEDSAVYYCARRNYGRTYGGDYWGQGTSVTVSSGCPPCPAPEAAGAPSVFLFPPKPKDTLMISRTPEVTCVVVDVSHEDPEVKFNWYVDGVEVHNAKTKPREEQYNSTYRVVSVLTVLHQDWLNGKEYKCKVSNKALPAPIEKTISKAKGQPREPQVYTLPPCREEMTKNQVSLSCAVKGFYPSDIAVEWESNGQPENNYKTTPPVLDSDGSFFLVSKLTVDKSRWQQGNVFSCSVMHEALHNHYTQKSLSLSPG
T84 tumor cell EC50 (T cell cytotoxicity, E:T 10:1) [1]: 28.7 nM
EC50 (Human CD3 epsilon-delta [4]): 0.887 nM
EC50 [5]: 27.5 nM
Kd [9]: 160 nM
koff [9]: 0.0224 s⁻¹
kon [9]: 143000 M⁻¹ s⁻¹
EC50 (Human GUCY2C ECD-muIgG2a): 7.5 nM

B3: GUCY2C-0104 (bispecific antibody)
chain 1: DIVMTQSPASLAVSLGQRATISCRASKGVTTSGYSYMHWYQQKPGQPPKLLIYLASNLESGVPARFSGSGSGTDFTLNIHPVEEEDAATYYCQHSREFPLTFGAGTKLELKGGGSGGGGEVQLVESGGGLVQPGGSLRLSCAASGFTFSDYYMTWVRQAPGKGLEWVAFIRNRARGYTSDHNPSVKGRFTISRDNAKNSLYLQMNSLRAEDTAVYYCARDRPSYYVLDYWGQGTTVTVSSGCPPCPAPEAAGAPSVFLFPPKPKDTLMISRTPEVTCVVVDVSHEDPEVKFNWYVDGVEVHNAKTKPREEQYNSTYRVVSVLTVLHQDWLNGKEYKCKVSNKALPAPIEKTISKAKGQPREPQVCTLPPSREEMTKNQVSLWCLVKGFYPSDIAVEWESNGQPENNYKTTPPVLDSDGSFFLYSKLTVDKSRWQQGNVFSCSVMHEALHNHYTQKSLSLSPG
chain 2: DIVMTQSPDSLAVSLGERATINCKSSQSLFNVRSRKNYLAWYQQKPGQPPKLLISWASTRESGVPDRFSGSGSGTDFTLTISSLQAEDVAVYYCKQSYDLFTFGSGTKLEIKGGGSGGGGEVQLQQSGAELVKPGASVKLSCTASGFNIKDTYIHWVKQRPEQGLEWIGRIDPANGNANYDPKFQGKATITADTSSNTAYLQLSSLTSEDTAVFYCSSLGTGTYWGQGTTLTVSSGCPPCPAPEAAGAPSVFLFPPKPKDTLMISRTPEVTCVVVDVSHEDPEVKFNWYVDGVEVHNAKTKPREEQYNSTYRVVSVLTVLHQDWLNGKEYKCKVSNKALPAPIEKTISKAKGQPREPQVYTLPPCREEMTKNQVSLSCAVKGFYPSDIAVEWESNGQPENNYKTTPPVLDSDGSFFLVSKLTVDKSRWQQGNVFSCSVMHEALHNHYTQKSLSLSPG
T84 tumor cell EC50 (T cell cytotoxicity, E:T 10:1) [1]: 14.9 nM
EC50 (Human CD3 epsilon-delta [4]): 0.418 nM
EC50 [5]: > 100 nM
Kd [9]: 26.1 nM
koff [9]: 0.00386 s⁻¹
kon [9]: 148000 M⁻¹ s⁻¹
EC50 (Human GUCY2C ECD-muIgG2a): 2.48 nM

Results, then the binder that gave them:

EC50 [10]: 5.14 nM
B4: GUCY2C-0179 (antibody, human IgG1, V domains shown)
VH: EVQLVESGGGLVQPGGSLRLSCAASGYSFTDYIMLWVRQAPGKGLEWIGNSNPYYGSTSYNLKFKGRFTISVDKAKNSAYLQMNSLRAEDTAVYYCARSGYYGSSPYWYFDVWGQGTMVTVSS
VL: DIQMTQSPSSLSASVGDRVTITCKSSQSLLYSSNQKNYLAWYQQKPGKSPKLLIYWASTRESGVPSRFSGSGSGTDFTLTISSLQPEDFATYYCQQYYSYPTFGGGTKVEIK

EC50 [10]: 0.23 nM
B5: GUCY2C-0193 (antibody, human IgG1, V domains shown)
VH: EVQLVESGGGLVQPGGSLRLSCAASGYTFTSYWMHWVRQAPGKGLEWIGEIKPSNGLTNYIEKFKNRFTISVDKAKNSAYLQMNSLRAEDTAVYYCTRTITTTEGYWFFDVWGQGTLVTVSS
VL: DIQMTQSPSSLSASVGDRVTITCRASESVDYYGTSLMQWYQQKPGKAPKLLIYAASNVESGVPSRFSGSGSGTDFTLTISSLQPEDFATYYCQQTRKVYTFGQGTKLEIK

EC50 [10]: 0.0693 nM
B6: GUCY2C-0166 (antibody, human IgG1, V domains shown)
VH: EVQLVESGGGLVQPGGSLRLSCAASGYTFTTYWMQWVRQAPGKGLEWIGAIYPGDGMTTYTQKFKDRFTISADKAKNSAYLQMNSLRAEDTAVYYCVRKGMDYWGQGTLVTVSS
VL: DIQLTQSPSSLSASVGDRVTITCRASESVDNYGISFMNWFQQKPGKAPKLLIYAASNPGSGVPSRFSGSGSGTDFTLTISSLQPEDFATYYCQQSKEVPYTFGQGTKLEIK
notes: human IgG1
